Test results published in patent US20190040368.

Key:
[1] = molecular target: T1, recombinant human iduronate-2 sulfatase (rhIDS)
T1 chain: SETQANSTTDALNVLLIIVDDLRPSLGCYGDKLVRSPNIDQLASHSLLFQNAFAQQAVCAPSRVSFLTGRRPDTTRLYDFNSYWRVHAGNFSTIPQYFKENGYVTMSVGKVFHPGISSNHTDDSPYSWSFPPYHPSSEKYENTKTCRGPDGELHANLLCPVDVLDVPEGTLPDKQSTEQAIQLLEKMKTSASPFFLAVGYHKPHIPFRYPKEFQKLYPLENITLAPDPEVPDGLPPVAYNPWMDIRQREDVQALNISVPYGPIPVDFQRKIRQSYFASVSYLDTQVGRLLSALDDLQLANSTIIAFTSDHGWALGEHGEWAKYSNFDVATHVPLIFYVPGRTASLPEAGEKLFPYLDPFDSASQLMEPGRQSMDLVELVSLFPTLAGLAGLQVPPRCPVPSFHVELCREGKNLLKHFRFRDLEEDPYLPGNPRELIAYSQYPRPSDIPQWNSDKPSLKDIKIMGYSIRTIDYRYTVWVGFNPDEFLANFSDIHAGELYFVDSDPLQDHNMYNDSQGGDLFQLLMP

[2] = molecular target: T2, recombinant human sulfamidase (rSGSH)
T2 chain: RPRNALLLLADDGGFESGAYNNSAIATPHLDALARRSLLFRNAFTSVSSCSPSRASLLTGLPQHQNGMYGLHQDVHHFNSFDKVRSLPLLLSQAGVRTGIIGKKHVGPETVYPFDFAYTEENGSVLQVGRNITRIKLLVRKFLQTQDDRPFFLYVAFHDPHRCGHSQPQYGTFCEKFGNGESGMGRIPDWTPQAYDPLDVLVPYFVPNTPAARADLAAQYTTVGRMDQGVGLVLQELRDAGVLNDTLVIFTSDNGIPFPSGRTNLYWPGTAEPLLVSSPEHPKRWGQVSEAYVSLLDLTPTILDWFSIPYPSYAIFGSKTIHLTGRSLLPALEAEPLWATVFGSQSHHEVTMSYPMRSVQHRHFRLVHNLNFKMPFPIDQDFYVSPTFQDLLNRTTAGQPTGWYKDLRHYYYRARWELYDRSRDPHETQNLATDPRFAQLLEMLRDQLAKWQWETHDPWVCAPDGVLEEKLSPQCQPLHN

B1: Bos taurus FGE fusion protein (Lip2pre-BtFGE-6HIS-HDEL) (protein)
chain: GEEAGPEAGAPSLVGSCGCGNPQRPGAQGSSAAAHRYSREANAPGSVPGGRPSPPTKMVPIPAGVFTMGTDDPQIKQDGEAPARRVAIDAFYMDAYEVSNAEFEKFVNSTGYLTEAEKFGDSFVFEGMLSEQVKSDIQQAVAAAPWWLPVKGANWRHPEGPDSTVLHRPDHPVLHVSWNDAVAYCTWAGKRLPTEAEWEYSCRGGLQNRLFPWGNKLQPKGQHYANIWQGEFPVTNTGEDGFRGTAPVDAFPPNGYGLYNIVGNAWEWTSDWWTVHHSAEETINPKGPPSGKDRVKKGGSYMCHKSYCYRYRCAARSQNTPDSSASNLGFRCAADHLPTTGADHLPTTGHHHHHHHDEL
% FGly conversion (nano-LC MS); strain T146 (OXYY1828; BtFGE) [1]: 89.8% | % FGly conversion (nano-LC MS); strain T146 (OXYY1828; BtFGE), duplicate [1]: 92.7% | % FGly conversion-re-analyzed samples; DG29U5#7, OXYY1828; BtFGE [1]: 95.8% | % FGly conversion-re-analyzed samples; DG33U6#6, OXYY1803; BtFGE and hPDI co-expressed [1]: 90.3% | % FGly conversion-re-analyzed samples; DG33U8#6, OXYY1828; BtFGE [1]: 97.1% | % FGly conversion; DG33U6#6, OXYY1803; BtFGE and hPDI co-expressed [1]: 79.5% | % FGly conversion; two copies of rhIDS and one copy of BtFGE (POX2 driven) [1]: 100% FGly conversion at a detection limit of -0.5% | % active rhIDS (4MU activity against ELISA); 1 copy rhIDS, 1 copy BtFGE (POX) [1]: 129% | % active rhIDS (4MU activity against ELISA); 1 copy rhIDS, 1 copy BtFGE (POX), 1 copy hPDI (POX) [1]: 121% | % activity of rhIDS; two copies of rhIDS and one copy of BtFGE (POX2 driven) [1]: 101% activity | Cys->FGly conversion in rhIDS (nano-LC-MS after cation exchange purification); BtFGE as a single POX2 driven copy [1]: complete conversion (100%, with a detection limit of -0.5%) | active rhIDS (4MU fluorogenic activity assay against sandwich ELISA), co-expression in Y. lipolytica [1]: All Y. lipolytica strains co-expressing rFGE with rhIDS resulted in the expression of active rhIDS. | % FGly conversion; sample 1, SGSH (POX) + BtFGE (POX) + hPDI (POX) [2]: 95.4% | % FGly conversion; sample 2, SGSH (POX) + BtFGE (POX) + hPDI (POX) [2]: 80.4% | % FGly conversion; sample 3, SGSH (POX) + BtFGE (POX) + hPDI (POX) § [2]: 93.4% | % FGly conversion; sample 4, SGSH (POX) + BtFGE (POX) + hPDI (POX) § [2]: 86.1% | % FGly conversion; sample 5, SGSH (POX) + BtFGE (POX & Hp4d) [2]: 94.4%
